In patent US5846743A, “Polyphoshoinositide binding peptides for intracellular drug delivery” (Brigham and Women's Hospital, Inc., priority 1996, dated 1998):
Where a SMILES comes first, the peptide text is derived from it. The star is where a group is joined. RhodamineB = CCN(CC)c1ccc2c(-c3ccccc3C(=O)*)c3ccc(=[N+](CC)CC)cc-3oc2c1

Test system: cells exposed to conjugate in culture medium, regardless of the cell type

## CCN(CC)c1ccc2c(-c3ccccc3C(=O)N[C@@H](CCC(N)=O)C(=O)N[C@@H](CCCNC(=N)N)C(=O)N[C@@H](CC(C)C)C(=O)N[C@@H](Cc3ccccc3)C(=O)N[C@@H](CCC(N)=O)C(=O)N[C@H](C(=O)N[C@@H](CCCCN)C(=O)NCC(=O)N[C@@H](CCCNC(=N)N)C(=O)N[C@@H](CCCNC(=N)N)C(=O)O)C(C)C)c3ccc(=[N+](CC)CC)cc-3oc2c1 [rhodamine-Sequence I.D. No. 2] (RhodamineB-QRLFQVKGRR-OH)
  intracellular free calcium increase caused by conjugate: did not result in uptake of free fluorescein or induce a large increase in intracellular free calcium
